Substrate in this data set: CC(=O)N[C@@H](CCCCNC(=O)CCC(=O)O)C(=O)Nc1ccc2c(C)cc(=O)oc2c1
Put plainly: SIRT5 desuccinylation/deacetylation of fluorogenic lysyl substrates, trypsin developer. As to conditions: other: varied substrate: Lysyl, 1 mM NAD^+, 10 ng SIRT5, 20 min. at 37° C., pH 8.0. The class given is biochemical, human. How it is done: FIG. 3 is graphs showing that SIRT5 catalyzes NAD^+-dependent desuccinylation of Ac-Lys(ε-succinyl)-AMC far more efficiently than NAD^+-dependent deacetylation of Ac-Arg-His-Lys-Lys(ε-acetyl)-AMC. Fifty μl reactions in Assay Buffer (50 mM Tris/HCl, pH 8.0, 137 mM NaCl, 2.7 mM KCl, 1 mM MgCl2, 1 mg/ml BSA) included 50 μM of either Ac-Lys(ε-succinyl)-AMC or Ac-Arg-His-Lys-Lys(ε-acetyl)-AMC, and, where indicated, 500 μM NAD^+ and 5 μg recombinant human SIRT5 (Enzo Life Sciences Cat. # BML-SE555). […] AMC fluorescence was read in a Cytofluor II plate-reading fluorimeter (Perseptive Biosystems) at wavelengths 360 nm (excitation)/460 nm (emission), Gain 54. Data represent the mean of two (No Enzyme) or three (+SIRT5) determinations and error bars the standard deviations. Panels A and B present the same data, but with the +SIRT5/+NAD^+/Ac-Lys(ε-succinyl)-AMC bar omitted from B to show the detail on the remaining bars. Statistically significant differences (Student's t-test) are indicated by asterisks as follows: *: p<0.02 vs. corresponding No Enzyme control; **: p<0.001 vs. corresponding −NAD^+ control; ***: p<3×10^−6 vs. both No Enzyme and −NAD^+ controls.
FIG. 4 is a graph showing that Ac-Lys(Succ.)-AMC enables SIRT5 assay at low enzyme concentrations. Fifty μl reactions in Assay Buffer (50 mM Tris/HCl, pH 8.0, 137 mM NaCl, 2.7 mM KCl, 1 mM MgCl2, 1 mg/ml BSA) included 2 or 10 μM Ac-Lys(ε-succinyl)-AMC, 500 μM NAD^+ and, where indicated, 5 ng recombinant human SIRT5 (Enzo Life Sciences Cat. # BML-SE555). […] AMC fluorescence was read in a Synergy 2 plate-reading fluorimeter (BioTek) at wavelengths 360 nm (excitation)/460 nm (emission), Gain 40. Data represent the mean of two (No Enzyme) or three (5 ng SIRT5) determinations and error bars the standard deviations. Statistically significant differences (Student's t-test) are indicated by asterisks as follows: *: p=0.002; **: p=0.009, each with respect to the corresponding “No SIRT5” samples.
FIG. 5 is graphs showing dependence of SIRT5 initial rate kinetics on the concentrations of Ac-Lys(Succ.)-AMC and Ac-Lys(Ac.)-AMC. Fifty μl desuccinylation or deacetylation reactions were performed as described earlier (FIG. 4), with the indicated concentrations of Ac-Lys(Succ.)-AMC or Ac-Lys(Ac.)-AMC and 1 mM NAD^+, for 20 min. at 37° C. Reactions with Ac-Lys(Succ.)-AMC contained 10 ng SIRT5 and those with Ac-Lys(Ac.)-AMC contained 5 SIRT5. […] AMC fluorescence was read in a Synergy 2 plate-reading fluorimeter (BioTek) at wavelengths 360 nm (excitation)/460 nm (emission), Gain 40. […] Fluorescence differences were converted to specific activities (pmol/min/μg) by measuring the fluorescence increase due to the addition a standard solution of AMC (5 μl of a […]). […]

B1: recombinant human SIRT5 (Homo sapiens) (protein)
chain: SSSMADFRKFFAKAKHIVIISGAGVSAESGVPTFRGAGGYWRKWQAQDLATPLAFAHNPSRVWEFYHYRREVMGSKEPNAGHRAIAECETRLGKQGRRVVVITQNIDELHRKAGTKNLLEIHGSLFKTRCTSCGVVAENYKSPICPALSGKGAPEPGTQDASIPVEKLPRCEEAGCGGLLRPHVVWFGENLDPAILEEVDRELAHCDLCLVVGTSSVVYPAAMFAPQVAARGVPVAEFNTETTPATNRFRFHFQGPCGTTLPEALACHENETVS
notes: purchased Enzo Life Sciences BML-SE555
Consider B1, for which the Km came to 108 µM, the Vmax amounted to 490 pmol/min/µg, the kcat turned out to be 0.26 s⁻¹ and the kcat/Km amounted to 2450 M⁻¹ s⁻¹.

For orientation: Km means the substrate concentration at which the rate is half of its maximum. For orientation: kcat means the number of substrate molecules converted per active site and unit of time at saturation. Usually kcat/Km stands for the turnover number divided by the Michaelis constant.
